In paper PMC12697862 one finds response (relative level of Myc/Flag (IP group)) data, which are given here for two substances.

The assay addresses IP3R1 channel fragment E. In words: co-IP (IP: Flag, immunoblot for Myc) with band quantification. Conditions: LV-GRP75-Flag(mutant) with IP3R1E-Myc; n = 5; means ± SEM; read off a plot.

As for “GRP75, transfected for co-IP (from UniProt P38647) K567Q; K612Q”, the response (relative level of Myc/Flag (IP group)) is 0.47. The figure for “GRP75, transfected for co-IP (from UniProt P38647) K567R; K612R” is 1.
